We go through 14 sequences from the supplement of paper PMC9170038.

For the data set, the system named is MS2 coat protein. In words: apparent KD of MS2 coat protein; higher = weaker reporter binding. The conditions noted are these: Eterna round: R107. A digest of the protocol: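 The buffer was 100 mM Tris-HCl pH 7.5 with 80 mM KCl and 4 mM MgCl2, used without or with constant ligand. In it, RNA switches transcribed on-chip from Illumina sequencing clusters were titrated with SNAP-549-labelled MS2 coat protein in twofold steps from 0.7 or 1.5 nM to 3 µM. Apparent KD for each design is the median of its normalised cluster binding-curve fits.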

Where [1] appears, read: input ligand: theophylline 20 uM.
[2] abbreviates: input ligand: theophylline 2 mM.
[3] abbreviates: input ligand: tryptophan 2.4 mM.

Consider “AUGGUAAGAACAUGAGGAUCACCCAUGUGACGAGGACCGGUACGGCCGCCACUCGUACCUUAGUCGUCGAACAGAGGAUUCAUGU [Trypt A-MS2@10]”, for which the “apparent KD of MS2 coat protein” value was found to be 37.1 nM (input ligand: arginine 13.2 mM), 138 nM under setting [1] and 125 nM under setting [2].

“CAUAUAUAUUGAAGGAGCGUCGAAAAUGGGUAAACAUGAGGAUCACCCAUGUAAAGGGAACGACAGGUAGGUCGCAAUAUAUAUG [AstromonsSSArgB#4]”: the “apparent KD of MS2 coat protein” value is 115 nM (input ligand: arginine 13.2 mM); 181 nM (input ligand: none); 199 nM under setting [1]; 177 nM under setting [2]; 146 nM under setting [3].

Consider “CUUGGCUGUGCGGCCGCCACUGACUCAUCCUGCAUUACAUGAGGAUCACCCAUGUUGCGGCCUCCCAGGACCGGGCAUAGCCUGC [Veered]”, for which the “apparent KD of MS2 coat protein” value runs as follows: (input ligand: arginine 13.2 mM) 102 nM; under setting [1], 397 nM; under setting [2], 673 nM.

Turning to “CCGUUUUAUGGCGACAUAGGGCGGACUGAAGGAGCGGUAUAAUAGCCAGGUAGGUCGCAGAGAUCCACAUGAGGAUCACCCAUGU [!0.aB]”, the “apparent KD of MS2 coat protein” value (input ligand: arginine 13.2 mM) was determined as 73.9 nM; the “apparent KD of MS2 coat protein” value (input ligand: none) worked out at 34.3 nM; the “apparent KD of MS2 coat protein” value under setting [1] was 51.5 nM; the “apparent KD of MS2 coat protein” value under setting [2] came out at 42.9 nM; the “apparent KD of MS2 coat protein” value under setting [3] is 34.3 nM.

Consider “CGUAGUAUCAGACAUGAGGAUCACCCAUGUCGAGGACCGGUACGGCCGCCACUCGGCAGUUUGCGUCCUCAGGUACUCCAGGUAA [Larirexea]”, for which the “apparent KD of MS2 coat protein” value was 14.8 nM (input ligand: arginine 13.2 mM), 27.9 nM under setting [1] and 26.1 nM under setting [2].

In the case of “GAUAGUUGAAGGGAUACCAGCCUGGACAUGAGGAUCACCCAUGUAGCAUGUUUGAAACUGGGCCCUUGGCAGCCCAUAUUGUGUA [#11 Same State - Theophylline B]”, the “apparent KD of MS2 coat protein” value runs as follows: (input ligand: arginine 13.2 mM) 16.6 nM; under setting [1], 25.4 nM; under setting [3], 22.8 nM.

Turning to “GAGCUCGUGGACUGGCGUGCUCCGCUCCGUCGAGGACCGGUACGGCCGCCACUCGACAUGAGGAUCACCCAUGUGCGAGCUCGCU [#1 Exclusion - Tryptophan A Attempt #22 (HarryS)]”, the “apparent KD of MS2 coat protein” value is 11.4 nM (input ligand: arginine 13.2 mM); 46.2 nM (input ligand: none); 113 nM under setting [1]; 117 nM under setting [2]; 21.4 nM under setting [3].

As to “GCCGCGGCCGCGAUACACAUGGGUGUGUAACGAGGACCGGUACGGCCGCCACUCGAGAUGGUGCACAUGAGGAUCACCCAUGUGC [Exclusion Tryp A GF15]”, the “apparent KD of MS2 coat protein” value by setting is: (input ligand: arginine 13.2 mM) 10.3 nM; (input ligand: none) 14.9 nM; under setting [1], 14.1 nM; under setting [2], 19.3 nM; under setting [3], 12.1 nM.

As for “UUGACAUGAGGAUCACCCAUGUUAGCUGAAGGAGCGAGGUAGUACUCAGGUAGGUCGCAGAGAGCAGAGUUAGUUGUUCUCAUGU [X-ArgiA-ms2@4]”, the “apparent KD of MS2 coat protein” value was 21.5 nM (input ligand: arginine 13.2 mM); 19.1 nM (input ligand: none); 28.5 nM under setting [1]; 23.3 nM under setting [2]; 18.6 nM under setting [3].

With “GCAUCCUAGUCGGCCGCCACUGCAACAUGAGGAUCACCCAUGUCAGGCCUCAUGUGUCCUGGUAGCAGGACCGGGACUAGGAUGC [(T1)-(M1)-(M2)-(T)''-(M)'-(T)'-(T2)_Design4_2/18/17]”, the “apparent KD of MS2 coat protein” value by setting is: (input ligand: arginine 13.2 mM) 34 nM; under setting [1], 47.1 nM; under setting [2], 52 nM.

As to “UAGAGCCAGUCGGCCGCCACUCUCCAUAUGUGAGCCUUUAAGUUCUACAUGAGGAUCACCCAUGUGAGGACCGGGACCGAAUCUA [theeternabot_exclusion_MS2_Trp_B_18]”, the “apparent KD of MS2 coat protein” value (input ligand: arginine 13.2 mM) was found to be 39.7 nM, the “apparent KD of MS2 coat protein” value under setting [1] was 80.3 nM and the “apparent KD of MS2 coat protein” value under setting [2] is 93.8 nM.

For the sequence “GUCCACAGCCGAAGGAGCGCUAGAAGAUGACAUGAGGAUCACCCAUGUGUGUGGUGUGGCUAGCAGGUAGGUCGCGGAGUGGAUU [Exclusion - Arginine B (Freestyle 15)]”, the “apparent KD of MS2 coat protein” value reads like this: (input ligand: arginine 13.2 mM) 39.7 nM; (input ligand: none) 30.5 nM; under setting [1], 59.3 nM; under setting [2], 39 nM; under setting [3], 26.1 nM.

On to “UUGGGUUUGUGAAGGAGCGGGUAUGUUUUCUAGUGGAUCCUAACAUGAGGAUCACCCAUGUCCCAGGUAGGUCGCGCGGGUUUGG [12.U]”, for which the “apparent KD of MS2 coat protein” value is, setting by setting: (input ligand: arginine 13.2 mM) 64.6 nM; (input ligand: none) 117 nM; under setting [1], 227 nM; under setting [2], 99.8 nM; under setting [3], 81.8 nM.

For the sequence “UAUCGUCAGACGGCCGCCACUAGUACAUGAGGAUCACCCAUGUAGGUCCUAGAUUCCUCAUGAUCUAGGACCGGGUCUGACGAAU [(Trp1)-(Ms2)-(T)'-(M)'-(Trp2)_Design16]”, the “apparent KD of MS2 coat protein” value (input ligand: arginine 13.2 mM) came out at 21.4 nM, the “apparent KD of MS2 coat protein” value under setting [1] turned out to be 61.5 nM and the “apparent KD of MS2 coat protein” value under setting [2] was found to be 52.9 nM.
